We go through one substance from PMC5798305.

This assay concerns the target naked mole-rat ASIC1b (naked mole-rat).

As to naked mole-rat ASIC3 (natural protein), the pH EC50 of proton-gated currents, whole-cell patch clamp of CHO cells cotransfected with nmrASIC3 + nmrASIC1b came out at 5.58 pH.
